Measurements published in article doi:10.1101/2021.08.12.456111.

Tests used:
[1] = biological target: FimV_(SoHubP), C-terminal FimV domain of S. oneidensis HubP (S. oneidensis); assay: interferometric scattering mass spectrometry
[2] = biological target: FimV_(SoHubP), C-terminal FimV domain of S. oneidensis HubP (S. oneidensis); assay: BLI

Row | stoichiometry N (GGDEF per FimV (2:2 complex)) [1] | Kd [2] [nM] | fold increase of KD against wild type [2] [fold] | Binder
1 | 1 | 200 |  | MBP-GGDEF_(SoPdeB), GGDEF domain of S. oneidensis PdeB, wild type (domain or fragment) RSLAVCYLDLEQFKLINDSCGHTAGDRMLAMVARAIQSCLGPQELLARIGGDEFGLVICDRTALAVAQLLKQIIAQVSLQVLHDKNCNYKVGLSIGVAFGRAPYINAQELLKDADIACIAAKAKGTNQIHIYDD
2 |  |  | 100 | SoGGDEF_(PdeB) K575S (domain or fragment) RSLAVCYLDLEQFKLINDSCGHTAGDRMLAMVARAIQSCLGPQELLARIGGDEFGLVICDRTALAVAQLLKQIIAQVSLQVLHDKNCNYKVGLSIGVAFGRAPYINAQELLKDADIACIAASAKGTNQIHIYDD
3 |  |  | 10 | SoGGDEF_(PdeB) K577S (domain or fragment) RSLAVCYLDLEQFKLINDSCGHTAGDRMLAMVARAIQSCLGPQELLARIGGDEFGLVICDRTALAVAQLLKQIIAQVSLQVLHDKNCNYKVGLSIGVAFGRAPYINAQELLKDADIACIAAKASGTNQIHIYDD
